# Reference: US10729768B2, “Combination of anti-CD20 antibody and PI3 kinase selective inhibitor” (TG Therapeutics, Inc., priority 2012, dated 2020)
# Tests used:
# Type in all cases: cell-based
# [1] = tested on: Raji Cells; assay: cell cycle assay, flow cytometry; conditions: for G0/G1, percentage of the cell population / G2/M, percentage of the cell population / S, percentage of the cell population / Sub G0, percentage of the cell population: 72 h
# Description: (§1) A cell cycle assay reagent (Millipore) was used to determine the effect of S-isomer of a compound of formula A, UBX, and combinations thereof on the cell cycle in cancerous cells. […] The cells were transferred to microfuge tubes to receive 50 μl of cell cycle reagent and incubated for 30 minutes at RT away from light. Cells were then diluted with 300-400 μl PBS, and a minimum of 10,000 events were acquired on a Guava® easyCyte™ flow cytometer. The data was analyzed with Express Pro software and the percentage of the cell population in different cell cycle stages with respect to control was presented in histograms.
# [2] = tested on: Daudi cells; assay: cell cycle assay, flow cytometry; conditions: for G0/G1, percentage of the cell population / G2/M, percentage of the cell population / S, percentage of the cell population / Sub G0, percentage of the cell population: 72 h
# Description: as §1
# [3] = tested on: U266B1 cells; assay: cell cycle assay, flow cytometry; conditions: for G0/G1, percentage of the cell population / G2/M, percentage of the cell population / S, percentage of the cell population / Sub G0, percentage of the cell population: 72 h
# Description: as §1
# [4] = tested on: DB Cells; assay: cell cycle assay, flow cytometry; conditions: for G0/G1, percentage of the cell population / G2/M, percentage of the cell population / S, percentage of the cell population / Sub G0, percentage of the cell population: DB cells, 72 h
# Description: as §1
# [5] = tested on: Daudi, RPMI-8226, Raji, and U266B1 cells; assay: in situ caspase-3 kit, apoptosis (Example 3), cell lines tested; conditions: cell lines tested, 24 hrs
# Description: In order to determine the effect of S-isomer of a compound of formula A, UBX, and combinations thereof on apoptosis in cancer cells, an in situ caspase-3 kit (Millipore) was used. Cells were plated in a 6 well plate at a concentration of 0.5×10^6 cells/ml, treated with either S-isomer of a compound of formula A (1000 nM), UBX (100 μg/ml to 0.1 μg/ml), or UBX with S-isomer of a compound of formula A at 1000 nM, and incubated for 24 hrs at 37° C. and 5% CO2. The cells were then transferred to microfuge tubes to receive 10 μl of freshly prepared FLICA™ reagent and incubated for 1 hour at 37° C. and 5% CO2 away from light. After extensive washes with wash buffer, test samples were adjusted to equalize the number of cells in PBS. 100 μl of each cell suspension was transferred to black 96-well plates in duplicates, and the fluorescence was read at an excitation wavelength of 490 nm and an emission wavelength of 520 nm in a plate reader. The fluorescence intensity for a DMSO control was subtracted from that of test compounds. Data was expressed as a percent of the maximum response (100%) and plotted accordingly.
molecule,measurement,setting,value
"UBX: monoclonal antibody that targets a specific and unique epitope on CD20, bioengineered for enhanced clinical activity and potency (antibody, V domains shown, antibody fragment) VH: QAYLQQSGAELVRPGASVKMSCKASGYTFTSYNMHWVKQTPRQGLEWIGGIYPGNGDTSYNQKFKGKATLTVGKSSSTAYMQLSSLTSEDSAVYFCARYDYNYAMDYWGQGTSVTVSS VL: QIVLSQSPAILSASPGEKVTMTCRASSSVSYMHWYQQKPGSSPKPWIYATSNLASGVPARFSGSGSGTSYSFTISRVEAEDAATYYCQQWTFNPPTFGGGTRLEIK","G0/G1, percentage of the cell population",[1]; UBX 0.001 ng/ml,50.52
same,"G2/M, percentage of the cell population",[1]; UBX 0.001 ng/ml,33.66
same,"S, percentage of the cell population",[1]; UBX 0.001 ng/ml,10.61
same,"Sub G0, percentage of the cell population",[1]; UBX 0.001 ng/ml,4.35
same,"G0/G1, percentage of the cell population",[1]; UBX 0.01 ng/ml,54.54
same,"G2/M, percentage of the cell population",[1]; UBX 0.01 ng/ml,25.08
same,"S, percentage of the cell population",[1]; UBX 0.01 ng/ml,12.65
same,"Sub G0, percentage of the cell population",[1]; UBX 0.01 ng/ml,5.51
same,"G0/G1, percentage of the cell population",[1]; UBX 0.1 ng/ml,41.11
same,"G2/M, percentage of the cell population",[1]; UBX 0.1 ng/ml,22.00
same,"S, percentage of the cell population",[1]; UBX 0.1 ng/ml,8.93
same,"Sub G0, percentage of the cell population",[1]; UBX 0.1 ng/ml,23.73
same,"G0/G1, percentage of the cell population",[1]; UBX 1 ng/ml,39.72
same,"G2/M, percentage of the cell population",[1]; UBX 1 ng/ml,15.35
same,"S, percentage of the cell population",[1]; UBX 1 ng/ml,14.82
same,"Sub G0, percentage of the cell population",[1]; UBX 1 ng/ml,27.32
same,"G0/G1, percentage of the cell population",[1]; UBX 10 ng/ml,45.01
same,"G2/M, percentage of the cell population",[1]; UBX 10 ng/ml,12.90
same,"S, percentage of the cell population",[1]; UBX 10 ng/ml,8.15
same,"Sub G0, percentage of the cell population",[1]; UBX 10 ng/ml,31.86
same,"G0/G1, percentage of the cell population",[1]; UBX 100 ng/ml,22.19
same,"G2/M, percentage of the cell population",[1]; UBX 100 ng/ml,33.74
same,"S, percentage of the cell population",[1]; UBX 100 ng/ml,11.05
same,"Sub G0, percentage of the cell population",[1]; UBX 100 ng/ml,34.78
same,cell cycle effect,[1]; 72 hours,increased the number of Sub GO cells
same,"G0/G1, percentage of the cell population",[2]; UBX 0.001 ng/ml,38.12
same,"G2/M, percentage of the cell population",[2]; UBX 0.001 ng/ml,41.95
same,"S, percentage of the cell population",[2]; UBX 0.001 ng/ml,17.90
same,"Sub G0, percentage of the cell population",[2]; UBX 0.001 ng/ml,2.03
same,"G0/G1, percentage of the cell population",[2]; UBX 0.01 ng/ml,36.24
same,"G2/M, percentage of the cell population",[2]; UBX 0.01 ng/ml,37.83
same,"S, percentage of the cell population",[2]; UBX 0.01 ng/ml,19.15
same,"Sub G0, percentage of the cell population",[2]; UBX 0.01 ng/ml,6.77
same,"G0/G1, percentage of the cell population",[2]; UBX 0.1 ng/ml,37.40
same,"G2/M, percentage of the cell population",[2]; UBX 0.1 ng/ml,32.42
same,"S, percentage of the cell population",[2]; UBX 0.1 ng/ml,17.06
same,"Sub G0, percentage of the cell population",[2]; UBX 0.1 ng/ml,13.42
same,"G0/G1, percentage of the cell population",[2]; UBX 1 ng/ml,40.52
same,"G2/M, percentage of the cell population",[2]; UBX 1 ng/ml,26.99
same,"S, percentage of the cell population",[2]; UBX 1 ng/ml,17.54
same,"Sub G0, percentage of the cell population",[2]; UBX 1 ng/ml,14.95
same,"G0/G1, percentage of the cell population",[2]; UBX 10 ng/ml,40.92
same,"G2/M, percentage of the cell population",[2]; UBX 10 ng/ml,28.08
same,"S, percentage of the cell population",[2]; UBX 10 ng/ml,13.23
same,"Sub G0, percentage of the cell population",[2]; UBX 10 ng/ml,17.77
same,"G0/G1, percentage of the cell population",[2]; UBX 100 ng/ml,43.66
same,"G2/M, percentage of the cell population",[2]; UBX 100 ng/ml,28.55
same,"S, percentage of the cell population",[2]; UBX 100 ng/ml,9.28
same,"Sub G0, percentage of the cell population",[2]; UBX 100 ng/ml,19.55
same,cell cycle effect,[2]; 72 hours,increased the number of Sub GO cells
same,"G0/G1, percentage of the cell population",[3]; UBX 0.001 ng/ml,60.79
same,"G2/M, percentage of the cell population",[3]; UBX 0.001 ng/ml,30.49
same,"S, percentage of the cell population",[3]; UBX 0.001 ng/ml,6.00
same,"Sub G0, percentage of the cell population",[3]; UBX 0.001 ng/ml,1.34
same,"G0/G1, percentage of the cell population",[3]; UBX 0.01 ng/ml,59.32
same,"G2/M, percentage of the cell population",[3]; UBX 0.01 ng/ml,35.48
same,"S, percentage of the cell population",[3]; UBX 0.01 ng/ml,6.57
same,"Sub G0, percentage of the cell population",[3]; UBX 0.01 ng/ml,0.74
same,"G0/G1, percentage of the cell population",[3]; UBX 0.1 ng/ml,57.53
same,"G2/M, percentage of the cell population",[3]; UBX 0.1 ng/ml,35.64
same,"S, percentage of the cell population",[3]; UBX 0.1 ng/ml,7.63
same,"Sub G0, percentage of the cell population",[3]; UBX 0.1 ng/ml,1.35
same,"G0/G1, percentage of the cell population",[3]; UBX 1 ng/ml,58.81
same,"G2/M, percentage of the cell population",[3]; UBX 1 ng/ml,36.07
same,"S, percentage of the cell population",[3]; UBX 1 ng/ml,7.07
same,"Sub G0, percentage of the cell population",[3]; UBX 1 ng/ml,0.51
same,"G0/G1, percentage of the cell population",[3]; UBX 10 ng/ml,56.85
same,"G2/M, percentage of the cell population",[3]; UBX 10 ng/ml,37.86
same,"S, percentage of the cell population",[3]; UBX 10 ng/ml,6.34
same,"Sub G0, percentage of the cell population",[3]; UBX 10 ng/ml,0.78
same,"G0/G1, percentage of the cell population",[3]; UBX 100 ng/ml,52.95
same,"G2/M, percentage of the cell population",[3]; UBX 100 ng/ml,39.65
same,"S, percentage of the cell population",[3]; UBX 100 ng/ml,7.91
same,"Sub G0, percentage of the cell population",[3]; UBX 100 ng/ml,1.95
same,cell cycle effect,[3]; 72 hours,modest G2/M arrest
same,"G0/G1, percentage of the cell population",[4]; UBX 0.001 ng/ml,54.38
same,"G2/M, percentage of the cell population",[4]; UBX 0.001 ng/ml,34.02
same,"S, percentage of the cell population",[4]; UBX 0.001 ng/ml,9.45
same,"Sub G0, percentage of the cell population",[4]; UBX 0.001 ng/ml,0.59
same,"G0/G1, percentage of the cell population",[4]; UBX 0.01 ng/ml,54.99
same,"G2/M, percentage of the cell population",[4]; UBX 0.01 ng/ml,34.79
same,"S, percentage of the cell population",[4]; UBX 0.01 ng/ml,7.73
same,"Sub G0, percentage of the cell population",[4]; UBX 0.01 ng/ml,0.73
same,"G0/G1, percentage of the cell population",[4]; UBX 0.1 ng/ml,56.34
same,"G2/M, percentage of the cell population",[4]; UBX 0.1 ng/ml,38.40
same,"S, percentage of the cell population",[4]; UBX 0.1 ng/ml,12.34
same,"Sub G0, percentage of the cell population",[4]; UBX 0.1 ng/ml,1.10
same,"G0/G1, percentage of the cell population",[4]; UBX 1 ng/ml,51.36
same,"G2/M, percentage of the cell population",[4]; UBX 1 ng/ml,40.07
same,"S, percentage of the cell population",[4]; UBX 1 ng/ml,6.46
same,"Sub G0, percentage of the cell population",[4]; UBX 1 ng/ml,0.52
same,"G0/G1, percentage of the cell population",[4]; UBX 10 ng/ml,49.52
same,"G2/M, percentage of the cell population",[4]; UBX 10 ng/ml,40.56
same,"S, percentage of the cell population",[4]; UBX 10 ng/ml,10.07
same,"Sub G0, percentage of the cell population",[4]; UBX 10 ng/ml,0.56
same,"G0/G1, percentage of the cell population",[4]; UBX 100 ng/ml,45.98
same,"G2/M, percentage of the cell population",[4]; UBX 100 ng/ml,46.55
same,"S, percentage of the cell population",[4]; UBX 100 ng/ml,7.66
same,"Sub G0, percentage of the cell population",[4]; UBX 100 ng/ml,0.67
same,cell cycle effect,"[4]; Diffuse Large B-cell Lymphoma (DB) cells, 72 hours",modest G2/M arrest
same,ability to induce Caspase-3 activity,[5],limited ability
